According to patent US20240076412A1 (NATIONAL INSTITUTE OF BIOLOGICAL SCIENCES BEIJING, published 2024):
Read-outs that look alike come from different tables or passages of the source.

Columns and labels:
[1] = biological target: T1, extracellular domain of human CD47 (CD47-ECD), residues 1-118, with His6 tag and Avi tag (human, UniProt Q08722 19-136, biotin modification at the C-terminus (Avi tag, BirA) in the form called CD47-Bio); experiment: SPR (Biacore T200), IgG1 captured on CM5 chip, CD47 as analyte [Con't]
T1 construct: also called CD47-ECD-His6; CD47-Bio; not shown: His6 tag and Avi tag from the vector

[2] = biological target: T1, extracellular domain of human CD47 …; experiment: CD47 binding ELISA, bio-CD47 captured on neutravidin, full-length IgG1
Procedure: (§1) CD47 binding ELISA: 2 μg/mL of neutravidin (Sigma) in phosphate buffered saline (PBS) was coated in U-bottom 96-well plate (Nunc, MaxiSorp™), 100 μL per well, at 4° C. overnight or 37° C. for 1 hour. 2 μg/mL of bio-CD47 in PBS containing 2% nonfat milk were then captured onto the plates at 100 μL per well by incubation at 30° C. for 1 hour. […] In between each incubation step, the ELISA plate was washed for 6 times with PBST solution (0.05% Tween20 containing PBS) at 200 μL per well. Followed by HRP-conjugated antibody incubation, the ELISA signal was developed by incubating with TMB substrate (Sigma) for 5-10 mins at 30° C. and then stop the reaction with 2M H₂SO₄ at 50 μL per well. The absorbance at 450 nm was read by a microplate reader (Bio-Rad). For scFv-Fc or IgG1 based ELISA, the method was basically the same as described above for phage-scFvs except the bound antibodies were detected by HRP-conjugated mouse anti-human IgG Fc antibody (Sigma).
(§2) In FIG. 3, A. Antibodies in the form of full-length IgG1 were 3-fold serial diluted (starting at 10 nM, 12 concentrations total). B. Antibodies in the form of full-length IgG1 were 3-fold serial diluted (starting at 40 nM, 12 concentrations total).

[3] = biological target: T1, extracellular domain of human CD47 …; experiment: as above; remark: listed apart in the source
Procedure: as §1, §2

[4] = biological target: T2, hCD47 protein (SPR analyte of Example 2) (human, UniProt Q08722 19-139, limits assumed); experiment: SPR (Biacore T200), IgG1 captured on protein A/G CM5 chip, human CD47 as analyte
Procedure: (§3) All SPR analyses were performed on a Biacore T200 instrument (Biacore, GE Healthcare). […] The association rates (Kₒₙ), dissociation rates (Koff), and affinity constants (KD) were calculated using BiacoreT200 evaluation software.

[5] = biological target: T1, extracellular domain of human CD47 …; experiment: SIRPα competition ELISA, CD47-ECD-His6 coated, competitor 0.8 nM biotinylated SIRPα-d1-mFc
Procedure: (§4) The wash, development and read steps are the same as hCD47 binding ELISA. The OD450 values were transformed to Inhibition % in data analysis.
(§5) B. Antibodies in the form of full-length IgG1 were 3-fold serial diluted (starting at 40 nM, 12 concentrations total).

[6] = biological target: T1, extracellular domain of human CD47 …; experiment: SIRPα competition ELISA, CD47-ECD-His6 coated, competitor 0.5 nM biotinylated SIRPα-d1-mFc
Procedure: as §4, §5

hGPC3-ΔHS [7] = biological target: T3, hGPC3-ΔHS (human, UniProt P51654 25-559, limits assumed); experiment: SPR, antibody captured by anti-human Fc antibodies on CM5 chip, hGPC3 injected first, then hCD47
T3 construct: also called hGPC3-ΔHS protein

[8] = biological target: T1, extracellular domain of human CD47 …; experiment: SPR (Biacore T200), IgG1 captured on CM5 chip, CD47 as analyte; the column head prints KD (nM), but the cell equals kd/ka in M [Con't]
Procedure: (§6) 1 μg/mL of anti-CD47 full length IgG1 antibodies were captured onto a CM5 chip for 30 s at 10 μl/min. CD47 in 2-fold serial dilutions (starting at 100 nmol, seven concentrations total) were injected over the antibody-bound surface for 120 s at 30 μl/min followed by a 240 s dissociation phase. After each cycle, the surface was regenerated with magnesium chloride.

[9] = biological target: T1, extracellular domain of human CD47 …; experiment: SPR (Biacore T200), IgG1 captured on CM5 chip, CD47 as analyte; the column head also prints x 10^6, not applied because kd/ka of the cells gives the KD cell in M [Con't]
Procedure: as §6

[10] = biological target: T1, extracellular domain of human CD47 …; experiment: SPR (Biacore T200), IgG1 captured on CM5 chip, CD47 as analyte; the column head also prints x 10^-3, not applied because kd/ka of the cells gives the KD cell in M [Con't]
Procedure: as §6

[11] = biological target: T2, hCD47 protein (SPR analyte of Example 2); experiment: SPR, antibody captured by anti-human Fc antibodies on CM5 chip, hGPC3 injected first, then hCD47
hGPC3-ΔHS [12] = biological target: T3, hGPC3-ΔHS; experiment: SPR (Biacore T200), IgG1 captured on protein A/G CM5 chip, antigen printed as human GPC3 (hGPC3-ΔHS by paragraph 180) as analyte
Procedure: as §3

mFcγRI = biological target: T4, mFcγRI; experiment: SPR (Biacore T200), antibody captured on the chip, serially diluted mFcγRI as analyte; concentrations not given
T4 construct: Named singly only on the sheet; the text speaks of mFcγRs as a group; also called mouse Fcγ receptor I; one of the mFcγRs
T4 chain: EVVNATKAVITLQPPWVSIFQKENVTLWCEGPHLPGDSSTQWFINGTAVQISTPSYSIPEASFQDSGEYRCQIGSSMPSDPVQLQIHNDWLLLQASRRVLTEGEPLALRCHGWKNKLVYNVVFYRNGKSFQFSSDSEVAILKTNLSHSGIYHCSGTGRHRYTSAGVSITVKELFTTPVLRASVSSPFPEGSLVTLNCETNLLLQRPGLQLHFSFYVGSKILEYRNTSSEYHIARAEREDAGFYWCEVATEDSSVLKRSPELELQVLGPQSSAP

B1: BC18 full-length human IgG1 (antibody, V domains shown)
VH: QVQLQQSGPGLVKPSETLSLTCTVSGDSINYHYWSWIRQPPGKGLEWIGYIYYSGSTTYNPSLKSRVTMSVDPSKNHFSLKLTSVTAADTALYFCARQRGAYDYWGQGTQVTVSS
VL: DIQLTQSPSSVSASVGDRVTIACRASQDIGSRLVWYQQRPGKAPKLLIYAASSLQSGVPSRFSGSGSGTDFTLTISSLQPEDFATYYCQQSYSTPYSFGQGTKLEIK
notes: also called anti-CD47 mAb; parental anti-CD47 mAb
Q: What does the source list for B1?
A: Kd [1]: 1.62 nM; koff [1]: 0.00117 s⁻¹; kon [1]: 721000 M⁻¹ s⁻¹; EC50 (read off the curve) [2]: ~0.01 nM; EC50 (read off the curve) [3]: ~0.01 nM; Kd [4]: 1.11 nM; koff [4]: 0.000753 s⁻¹; kon [4]: 679000 M⁻¹ s⁻¹; IC50 (read off the curve) [5]: ~3 nM; IC50 (read off the curve) [6]: ~3 nM; binding result (hGPC3-ΔHS [7]): no binding; Kd [8]: 2.22 nM; kon [9]: 557000 M⁻¹ s⁻¹; koff [10]: 0.00123 s⁻¹

B2: GC33 (Codrituzumab), human IgG1 (antibody, V domains shown)
VH: QVQLVQSGAEVKKPGASVKVSCKASGYTFTDYEMHWVRQAPGQGLEWMGALDPKTGDTAYSQKFKGRVTLTADESTSTAYMELSSLRSEDTAVYYCTRFYSYTYWGQGTLVTVSS
VL: DVVMTQSPLSLPVTPGEPASISCRSSQSLVHSNANTYLHWYLQKPGQSPQLLIYKVSNRFSGVPDRFSGSGSGTDFTLKISRVEAEDVGVYYCSQNTHVPPTFGQGTKLEIK
notes: also called anti-GPC3 mAb
Q: Does B2 bind [11]?
A: no binding

Q: And the Kd (hGPC3-ΔHS [12])?
A: 1.29 nM

Q: What about the koff (hGPC3-ΔHS [12]) of the same binder?
A: 0.000275 s⁻¹

Q: And the kon (hGPC3-ΔHS [12])?
A: 213000 M⁻¹ s⁻¹

B3: GPC3/CD47-DANG (bispecific antibody)
heavy 1: QVQLVQSGAEVKKPGASVKVSCKASGYTFTDYEMHWVRQAPGQGLEWMGALDPKTGDTAYSQKFKGRVTLTADESTSTAYMELSSLRSEDTAVYYCTRFYSYTYWGQGTLVTVSSASTKGPSVFPLAPSSKSTSGGTAALGCLVKDYFPEPVTVSWNSGALTSGVHTFPAVLQSSGLYSLSSVVTVPSSSLGTQTYICNVNHKPSNTKVDKKAEPKSCDKTHTCPPCPAPELLGGPSVFLFPPKPKDTLMISRTPEVTCVVVAVSHEDPEVKFNWYVDGVEVHNAKTKPREEQYGSTYRVVSVLTVLHQDWLNGKEYKCKVSNKALPAPIEKTISKAKGQPREPQVYTLPPCRDELTKNQVSLWCLVKGFYPSDIAVEWESNGQPENNYKTTPPVLDSDGSFFLYSKLTVDKSRWQQGNVFSCSVMHEALHNHYTQKSLSLSPGK
light 1: DVVMTQSPLSLPVTPGEPASISCRSSQSLVHSNANTYLHWYLQKPGQSPQLLIYKVSNRFSGVPDRFSGSGSGTDFTLKISRVEAEDVGVYYCSQNTHVPPTFGQGTKLEIKRTVAAPSVFIFPPSDEQLKSGTASVVCLLNNFYPREAKVQWKVDNALQSGNSQESVTEQDSKDSTYSLSSTLTLSKADYEKHKVYACEVTHQGLSSPVTKSFNRGEC
heavy 2: QVQLQESGPGLVKPSETLSLTCTVSGDSINYHYWSWIRQPPGKGLEWIGYIYYSGSTTYNPSLKSRVTMSVDPSKNHFSLKLTSVTAADTALYFCARQRGAYDYWGQGTLVTVSSASVAAPSVFIFPPSDEQLKSGTASVVCLLNNFYPREAKVQWKVDNALQSGNSQESVTEQDSKDSTYSLSSTLTLSKADYEKHKVYACEVTHQGLSSPVTKSFNRGECDKTHTCPPCPAPELLGGPSVFLFPPKPKDTLMISRTPEVTCVVVAVSHEDPEVKFNWYVDGVEVHNAKTKPREEQYGSTYRVVSVLTVLHQDWLNGKEYKCKVSNKALPAPIEKTISKAKGQPREPQVCTLPPSRDELTKNQVSLSCAVKGFYPSDIAVEWESNGQPENNYKTTPPVLDSDGSFFLVSKLTVDKSRWQQGNVFSCSVMHEALHNHYTQKSLSLSPGK
light 2: DIQLTQSPSSVSASVGDRVTIACRASQDIGSRLVWYQQRPGKAPKLLIYAASSLQSGVPSRFSGSGSGTDFTLTISSLQPEDFATYYCQQSYSTPYSFGQGTKLEIKSSASTKGPSVFPLAPSSKSTSGGTAALGCLVKDYFPEPVTVSWNSGALTSGVHTFPAVLQSSGLYSLSSVVTVPSSSLGTQTYICNVNHKPSNTKVDKKAEPKSC
notes: also called GPC3/CD47 biAb Fc variant; GPC3/CD47-DANG variant
Q: Does B3 bind (mFcγRI)?
A: no binding
